In patent US11135246B2, “Peptides and combination of peptides for use in immunotherapy against leukemias and other cancers” (Immatics Biotechnologies GmbH, priority 2017, dated 2021):

What follows are substances tested against HLA-A*03:01 (Homo sapiens, UniProt P04439) (assay: MHC binding assay, UV-ligand exchange with β2m ELISA, HLA-A*03:01). Settings: peptide exchange yield.
Text: (§1) Candidate peptides for T cell based therapies according to the present invention were further tested for their MHC binding capacity (affinity). The individual peptide-MHC complexes were produced by UV-ligand exchange, where a UV-sensitive peptide is cleaved upon UV-irradiation, and exchanged with the peptide of interest as analyzed. Only peptide candidates that can effectively bind and stabilize the peptide-receptive MHC molecules prevent dissociation of the MHC complexes. To determine the yield of the exchange reaction, an ELISA was performed based on the detection of the light chain (β2m) of stabilized MHC complexes. The assay was performed as generally described in Rodenko et al. (Rodenko et al., 2006).
(§2) 96 well MAXISorp plates (NUNC) were coated over night with 2 ug/ml streptavidin in PBS at room temperature, washed 4× and blocked for 1 h at 37° C. in 2% BSA containing blocking buffer. Refolded HLA-A*02:01/MLA-001 monomers served as standards, covering the range of 15-500 ng/ml. Peptide-MHC monomers of the UV-exchange reaction were diluted 100-fold in blocking buffer. Samples were incubated for 1 h at 37° C., washed four times, incubated with 2 ug/ml HRP conjugated anti-β2m for 1 h at 37° C., washed again and detected with TMB solution that is stopped with […]. Absorption was measured at 450 nm. Candidate peptides that show a high exchange yield (preferably higher than 50%, most preferred higher than 75%) are generally preferred for a generation and production of antibodies or fragments thereof, and/or T cell receptors or fragments thereof, as they show sufficient avidity to the MHC molecules and prevent dissociation of the MHC complexes.
“29 (RIYDEILQSK; listed as Homo sapiens) [compound 29]” was tested, and the Peptide exchange was ““++” (>20% = ++)”.
With “47 (SVLDLSVHK; listed as Homo sapiens) [compound 47]” the Peptide exchange was ““++” (>20% = ++)”.
In the case of “44 (KVYDPVSEY; listed as Homo sapiens) [compound 44]”, the Peptide exchange is reported as ““++” (>20% = ++)”.
“52 (KAFNQSSTLTK; listed as Homo sapiens) [compound 52]” was tested, and the Peptide exchange was ““+++” (>50 = +++)”.
“221 (LLNRHILAH; listed as Homo sapiens) [compound 221]” was tested, and the Peptide exchange was ““+++” (>50 = +++)”.
“51 (ASTTVLALK; listed as Homo sapiens) [compound 51]” was tested, and the Peptide exchange was ““++” (>20% = ++)”.
“33 (SVFEGDSIVLK; listed as Homo sapiens) [compound 33]” was tested, and the Peptide exchange was ““++” (>20% = ++)”.
For “210 (RMYSQLKTLQK; listed as Homo sapiens) [compound 210]”, the Peptide exchange was ““+++” (>50 = +++)”.
With “38 (KARKSAGAAK; listed as Homo sapiens) [compound 38]” the Peptide exchange was ““+++” (>50 = +++)”.
For “215 (KATGAATPK; listed as Homo sapiens) [compound 215]”, the Peptide exchange was ““++” (>20% = ++)”.
For “213 (RVYNIYIRR; listed as Homo sapiens) [compound 213]”, the Peptide exchange was ““++” (>20% = ++)”.
With “28 (VILESIFLK; listed as Homo sapiens) [compound 28]” the Peptide exchange was ““++” (>20% = ++)”.
“216 (RIKAPSRNTIQK; listed as Homo sapiens) [compound 216]” was tested, and the Peptide exchange was ““++” (>20% = ++)”.

The substances below were run against HLA-B*07:02 (Homo sapiens, UniProt P01889) (assay: MHC binding assay, UV-ligand exchange with β2m ELISA, HLA-B*07:02). Settings: binding to HLA-B*07:02, UV-ligand exchange.
Text: as §1, §2
“91 (KPKAAKPKAA; listed as Homo sapiens) [compound 91]” was tested, and the “Peptide exchange (MHC class I binding score, peptide exchange yield)” value was ““++” (>20% = ++)”.
“233 (SPRVYWLGL; listed as Homo sapiens) [compound 233]” was tested, and the “Peptide exchange (MHC class I binding score, peptide exchange yield)” value was ““+++” (>50 = +++)”.
“225 (LPARFYQAL; listed as Homo sapiens) [compound 225]” was tested, and the “Peptide exchange (MHC class I binding score, peptide exchange yield)” value was ““++++” (>75% = ++++)”.
“94 (KPKAAKPKKAAA; listed as Homo sapiens) [compound 94]” was tested, and the “Peptide exchange (MHC class I binding score, peptide exchange yield)” value was ““++” (>20% = ++)”.
For “87 (FPAPILRAV; listed as Homo sapiens) [compound 87]”, the “Peptide exchange (MHC class I binding score, peptide exchange yield)” value was ““+++” (>50 = +++)”.
“245 (SPLSHHSQL; listed as Homo sapiens) [compound 245]” was tested, and the “Peptide exchange (MHC class I binding score, peptide exchange yield)” value was ““++” (>20% = ++)”.
“84 (SPKLQIAAM; listed as Homo sapiens) [compound 84]” was tested, and the “Peptide exchange (MHC class I binding score, peptide exchange yield)” value was ““+++” (>50 = +++)”.
In the case of “234 (SPKESENAL; listed as Homo sapiens) [compound 234]”, the “Peptide exchange (MHC class I binding score, peptide exchange yield)” value is reported as ““++” (>20% = ++)”.
In the case of “90 (KPKAAKPKA; listed as Homo sapiens) [compound 90]”, the “Peptide exchange (MHC class I binding score, peptide exchange yield)” value is reported as ““++” (>20% = ++)”.
“93 (KARKSAGAA; listed as Homo sapiens) [compound 93]” was tested, and the “Peptide exchange (MHC class I binding score, peptide exchange yield)” value was ““+++” (>50 = +++)”.
“253 (RPFADLLGTAF; listed as Homo sapiens) [compound 253]” was tested, and the “Peptide exchange (MHC class I binding score, peptide exchange yield)” value was ““+++” (>50 = +++)”.
With “250 (VPNLQTVSV; listed as Homo sapiens) [compound 250]” the “Peptide exchange (MHC class I binding score, peptide exchange yield)” value was ““++” (>20% = ++)”.
“92 (KAKKPAGAA; listed as Homo sapiens) [compound 92]” was tested, and the “Peptide exchange (MHC class I binding score, peptide exchange yield)” value was ““++” (>20% = ++)”.
For “96 (KPKKAPKSPA; listed as Homo sapiens) [compound 96]”, the “Peptide exchange (MHC class I binding score, peptide exchange yield)” value was ““+++” (>50 = +++)”.
With “88 (MPDPHLYHQM; listed as Homo sapiens) [compound 88]” the “Peptide exchange (MHC class I binding score, peptide exchange yield)” value was ““++” (>20% = ++)”.
“81 (SESPWLHAPSL; listed as Homo sapiens) [compound 81]” was tested, and the “Peptide exchange (MHC class I binding score, peptide exchange yield)” value was ““+++” (>50 = +++)”.
For “244 (MPSSDTTVTF; listed as Homo sapiens) [compound 244]”, the “Peptide exchange (MHC class I binding score, peptide exchange yield)” value was ““+++” (>50 = +++)”.
In the case of “249 (SPADHRGYASL; listed as Homo sapiens) [compound 249]”, the “Peptide exchange (MHC class I binding score, peptide exchange yield)” value is reported as ““++” (>20% = ++)”.
With “231 (MPLSTIREV; listed as Homo sapiens) [compound 231]” the “Peptide exchange (MHC class I binding score, peptide exchange yield)” value was ““++” (>20% = ++)”.
“252 (RPHIPISKL; listed as Homo sapiens) [compound 252]” was tested, and the “Peptide exchange (MHC class I binding score, peptide exchange yield)” value was ““++” (>20% = ++)”.
For “240 (SPSLPNITL; listed as Homo sapiens) [compound 240]”, the “Peptide exchange (MHC class I binding score, peptide exchange yield)” value was ““+++” (>50 = +++)”.
In the case of “229 (SPLGSLARSSL; listed as Homo sapiens) [compound 229]”, the “Peptide exchange (MHC class I binding score, peptide exchange yield)” value is reported as ““++++” (>75% = ++++)”.
“100 (YPYQERVFL; listed as Homo sapiens) [compound 100]” was tested, and the “Peptide exchange (MHC class I binding score, peptide exchange yield)” value was ““++” (>20% = ++)”.
“247 (QPSPARAPAEL; listed as Homo sapiens) [compound 247]” was tested, and the “Peptide exchange (MHC class I binding score, peptide exchange yield)” value was ““++” (>20% = ++)”.
For “254 (SPRNLQPQRAAL; listed as Homo sapiens) [compound 254]”, the “Peptide exchange (MHC class I binding score, peptide exchange yield)” value was ““+++” (>50 = +++)”.
In the case of “77 (RPNGNSLFTSA; listed as Homo sapiens) [compound 77]”, the “Peptide exchange (MHC class I binding score, peptide exchange yield)” value is reported as ““+++” (>50 = +++)”.
With “99 (SPRAINNLVL; listed as Homo sapiens) [compound 99]” the “Peptide exchange (MHC class I binding score, peptide exchange yield)” value was ““++++” (>75% = ++++)”.
“230 (KPMKSVLVV; listed as Homo sapiens) [compound 230]” was tested, and the “Peptide exchange (MHC class I binding score, peptide exchange yield)” value was ““+++” (>50 = +++)”.
In the case of “103 (IPANTEKASF; listed as Homo sapiens) [compound 103]”, the “Peptide exchange (MHC class I binding score, peptide exchange yield)” value is reported as ““++” (>20% = ++)”.
In the case of “78 (RPRGLALVL; listed as Homo sapiens) [compound 78]”, the “Peptide exchange (MHC class I binding score, peptide exchange yield)” value is reported as ““+++” (>50 = +++)”.
In the case of “82 (APFGFLGMQSL; listed as Homo sapiens) [compound 82]”, the “Peptide exchange (MHC class I binding score, peptide exchange yield)” value is reported as ““+++” (>50 = +++)”.
“241 (APAPAEKTPV; listed as Homo sapiens) [compound 241]” was tested, and the “Peptide exchange (MHC class I binding score, peptide exchange yield)” value was ““+++” (>50 = +++)”.
“98 (YPIALTRAEM; listed as Homo sapiens) [compound 98]” was tested, and the “Peptide exchange (MHC class I binding score, peptide exchange yield)” value was ““+++” (>50 = +++)”.
“246 (YPGWHSTTI; listed as Homo sapiens) [compound 246]” was tested, and the “Peptide exchange (MHC class I binding score, peptide exchange yield)” value was ““++” (>20% = ++)”.
In the case of “80 (KPLFKVSTF; listed as Homo sapiens) [compound 80]”, the “Peptide exchange (MHC class I binding score, peptide exchange yield)” value is reported as ““++” (>20% = ++)”.
“232 (APRPAGSYL; listed as Homo sapiens) [compound 232]” was tested, and the “Peptide exchange (MHC class I binding score, peptide exchange yield)” value was ““+++” (>50 = +++)”.
In the case of “242 (SPFSFHHVL; listed as Homo sapiens) [compound 242]”, the “Peptide exchange (MHC class I binding score, peptide exchange yield)” value is reported as ““++” (>20% = ++)”.
With “227 (APINKAGSFL; listed as Homo sapiens) [compound 227]” the “Peptide exchange (MHC class I binding score, peptide exchange yield)” value was ““++++” (>75% = ++++)”.
In the case of “105 (NPLTKLLAI; listed as Homo sapiens) [compound 105]”, the “Peptide exchange (MHC class I binding score, peptide exchange yield)” value is reported as ““+++” (>50 = +++)”.
“238 (SPRSWIQVQI; listed as Homo sapiens) [compound 238]” was tested, and the “Peptide exchange (MHC class I binding score, peptide exchange yield)” value was ““+++” (>50 = +++)”.
For “86 (IPASHPVL; listed as Homo sapiens) [compound 86]”, the “Peptide exchange (MHC class I binding score, peptide exchange yield)” value was ““++” (>20% = ++)”.
“248 (LPYDSKHQI; listed as Homo sapiens) [compound 248]” was tested, and the “Peptide exchange (MHC class I binding score, peptide exchange yield)” value was ““++” (>20% = ++)”.
For “228 (SPRITFPSL; listed as Homo sapiens) [compound 228]”, the “Peptide exchange (MHC class I binding score, peptide exchange yield)” value was ““++++” (>75% = ++++)”.
“226 (YLNRHLHTW; listed as Homo sapiens) [compound 226]” was tested, and the “Peptide exchange (MHC class I binding score, peptide exchange yield)” value was ““++” (>20% = ++)”.
“235 (SPSLPSRTL; listed as Homo sapiens) [compound 235]” was tested, and the “Peptide exchange (MHC class I binding score, peptide exchange yield)” value was ““++” (>20% = ++)”.
For “239 (APSKTSLIM; listed as Homo sapiens) [compound 239]”, the “Peptide exchange (MHC class I binding score, peptide exchange yield)” value was ““++” (>20% = ++)”.
